Assay results published in US20150344570A1 (published 2015).

T1: FcγRIIb extracellular domain with C-terminal His tag (human, UniProt P31994 43-217)
T1 construct: extracellular domain; also called FcgRIIb; 2b
T1 sequence (looked up): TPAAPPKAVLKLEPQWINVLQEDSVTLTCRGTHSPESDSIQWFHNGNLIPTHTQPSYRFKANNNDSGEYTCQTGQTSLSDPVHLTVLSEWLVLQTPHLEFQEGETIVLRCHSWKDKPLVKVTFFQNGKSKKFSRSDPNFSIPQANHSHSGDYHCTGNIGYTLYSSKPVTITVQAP

B1: GpH7-B3 variant K326_08L/GpL16-k0 (antibody, human IgG1, kappa)
heavy: not shown
light: DIVMTQSPLSLPVTPGEPASISCQASESLVHSNRNTYLHWYLQKPGQSPQLLIYKVSNRFSGVPDRFSGSGSGTDFTLKISRVEAEDVGVYYCSQNTHVPPTFGQGTKVEIERTVAAPSVFIFPPSDEQLKSGTASVVCLLNNFYPREAKVQWKVDNALQSGNSQESVTEQDSKDSTYSLSSTLTLSKADYEKHKVYACEVTHQGLSSPVTKSFNRGEC
notes: also called Ho Ab K326_08L
B2: GpH7-B3 variant P238_06M/GpL16-k0 (antibody, human IgG1, kappa)
heavy: not shown
light: B1 light
notes: also called Ho Ab P238_06M
B3: GpH7-B3 variant S239_05P/GpL16-k0 (antibody, human IgG1, kappa)
heavy: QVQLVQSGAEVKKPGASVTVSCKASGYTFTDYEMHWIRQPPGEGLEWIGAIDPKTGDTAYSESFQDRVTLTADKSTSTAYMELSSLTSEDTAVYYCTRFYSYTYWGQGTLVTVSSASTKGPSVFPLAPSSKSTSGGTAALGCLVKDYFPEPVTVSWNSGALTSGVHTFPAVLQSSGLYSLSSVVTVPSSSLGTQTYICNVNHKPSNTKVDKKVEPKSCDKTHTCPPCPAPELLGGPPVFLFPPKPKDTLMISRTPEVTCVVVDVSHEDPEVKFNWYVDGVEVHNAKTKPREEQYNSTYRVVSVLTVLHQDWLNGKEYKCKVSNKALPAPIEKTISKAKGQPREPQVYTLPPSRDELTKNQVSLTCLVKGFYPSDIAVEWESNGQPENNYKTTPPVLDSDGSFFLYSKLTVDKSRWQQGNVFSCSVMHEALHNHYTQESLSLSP
light: B1 light
notes: also called Ho Ab S239_05P
B4: GpH7-B3 variant P331_15Y/GpL16-k0 (antibody, human IgG1, kappa)
heavy: not shown
light: B1 light
notes: also called Ho Ab P331_15Y
B5: GpH7-B3 variant P238_04F/GpL16-k0 (antibody, human IgG1, kappa)
heavy: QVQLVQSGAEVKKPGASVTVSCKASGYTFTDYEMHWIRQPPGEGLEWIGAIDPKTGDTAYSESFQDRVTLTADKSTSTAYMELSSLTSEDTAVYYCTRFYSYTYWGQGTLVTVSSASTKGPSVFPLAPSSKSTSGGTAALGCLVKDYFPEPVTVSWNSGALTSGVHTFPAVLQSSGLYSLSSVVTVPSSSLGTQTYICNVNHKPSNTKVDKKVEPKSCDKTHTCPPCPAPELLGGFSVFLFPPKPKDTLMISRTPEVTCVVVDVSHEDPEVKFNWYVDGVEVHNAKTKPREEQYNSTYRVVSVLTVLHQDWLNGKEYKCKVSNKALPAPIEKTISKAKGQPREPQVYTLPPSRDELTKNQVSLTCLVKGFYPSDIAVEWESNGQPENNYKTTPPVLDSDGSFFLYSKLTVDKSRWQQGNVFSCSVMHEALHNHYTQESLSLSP
light: B1 light
notes: also called Ho Ab P238_04F
B6: GpH7-B3 variant L328_13S/GpL16-k0 (antibody, human IgG1, kappa)
heavy: not shown
light: B1 light
notes: also called Ho Ab L328_13S
B7: GpH7-B3 variant P331_20W/GpL16-k0 (antibody, human IgG1, kappa)
heavy: not shown
light: B1 light
notes: also called Ho Ab P331_20W
B8: GpH7-B3 variant N325_03V/GpL16-k0 (antibody, human IgG1, kappa)
heavy: not shown
light: B1 light
notes: also called Ho Ab N325_03V
B9: GpH7-B3 variant L235_15Y/GpL16-k0 (antibody, human IgG1, kappa)
heavy: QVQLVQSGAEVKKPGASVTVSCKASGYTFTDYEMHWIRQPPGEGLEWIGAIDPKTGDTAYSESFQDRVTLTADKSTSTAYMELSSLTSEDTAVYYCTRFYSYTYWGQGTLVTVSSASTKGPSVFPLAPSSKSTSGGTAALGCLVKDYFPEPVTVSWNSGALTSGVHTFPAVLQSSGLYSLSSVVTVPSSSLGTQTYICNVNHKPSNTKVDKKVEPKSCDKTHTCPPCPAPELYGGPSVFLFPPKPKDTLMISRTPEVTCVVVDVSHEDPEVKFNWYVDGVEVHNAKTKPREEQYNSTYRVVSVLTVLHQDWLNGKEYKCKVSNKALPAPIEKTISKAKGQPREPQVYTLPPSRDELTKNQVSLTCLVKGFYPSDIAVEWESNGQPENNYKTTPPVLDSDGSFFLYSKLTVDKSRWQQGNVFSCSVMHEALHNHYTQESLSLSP
light: B1 light
notes: also called Ho Ab L235_15Y
B10: GpH7-B3 variant P238_16H/GpL16-k0 (antibody, human IgG1, kappa)
heavy: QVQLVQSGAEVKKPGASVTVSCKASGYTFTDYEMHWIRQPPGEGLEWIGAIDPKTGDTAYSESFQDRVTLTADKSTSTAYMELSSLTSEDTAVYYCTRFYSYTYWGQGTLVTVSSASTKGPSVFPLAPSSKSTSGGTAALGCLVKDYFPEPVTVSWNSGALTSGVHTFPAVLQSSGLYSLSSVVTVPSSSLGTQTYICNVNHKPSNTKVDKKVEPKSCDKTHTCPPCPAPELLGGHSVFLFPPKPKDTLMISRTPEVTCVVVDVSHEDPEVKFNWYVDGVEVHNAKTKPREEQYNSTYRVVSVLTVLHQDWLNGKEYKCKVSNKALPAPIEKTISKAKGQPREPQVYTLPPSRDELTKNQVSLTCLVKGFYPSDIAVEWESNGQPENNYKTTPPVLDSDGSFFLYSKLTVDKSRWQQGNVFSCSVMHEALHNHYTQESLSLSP
light: B1 light
notes: also called Ho Ab P238_16H
B11: GpH7-B3 variant S267_06M/GpL16-k0 (antibody, human IgG1, kappa)
heavy: not shown
light: B1 light
notes: also called Ho Ab S267_06M
B12: GpH7-B3 variant S337_18N/GpL16-k0 (antibody, human IgG1, kappa)
heavy: not shown
light: B1 light
notes: also called Ho Ab S337_18N
B13: GpH7-B3 variant N325_08L/GpL16-k0 (antibody, human IgG1, kappa)
heavy: not shown
light: B1 light
notes: also called Ho Ab N325_08L
B14: GpH7-B3 variant S298_06M/GpL16-k0 (antibody, human IgG1, kappa)
heavy: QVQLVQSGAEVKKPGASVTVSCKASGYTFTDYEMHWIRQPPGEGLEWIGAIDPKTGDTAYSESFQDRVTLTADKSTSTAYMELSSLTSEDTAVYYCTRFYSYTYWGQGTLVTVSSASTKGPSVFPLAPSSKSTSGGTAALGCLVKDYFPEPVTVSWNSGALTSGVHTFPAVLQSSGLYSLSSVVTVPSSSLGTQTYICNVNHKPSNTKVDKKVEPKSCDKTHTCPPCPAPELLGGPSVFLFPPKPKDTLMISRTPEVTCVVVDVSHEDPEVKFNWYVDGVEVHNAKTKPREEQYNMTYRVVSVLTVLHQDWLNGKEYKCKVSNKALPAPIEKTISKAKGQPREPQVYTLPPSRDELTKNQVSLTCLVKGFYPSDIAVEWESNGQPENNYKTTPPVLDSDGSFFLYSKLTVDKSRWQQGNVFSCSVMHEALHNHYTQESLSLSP
light: B1 light
notes: also called Ho Ab S298_06M
B15: GpH7-B3 variant L234_20W/GpL16-k0 (antibody, human IgG1, kappa)
heavy: not shown
light: B1 light
notes: also called Ho Ab L234_20W
B16: GpH7-B3 variant K326_20W/GpL16-k0 (antibody, human IgG1, kappa)
heavy: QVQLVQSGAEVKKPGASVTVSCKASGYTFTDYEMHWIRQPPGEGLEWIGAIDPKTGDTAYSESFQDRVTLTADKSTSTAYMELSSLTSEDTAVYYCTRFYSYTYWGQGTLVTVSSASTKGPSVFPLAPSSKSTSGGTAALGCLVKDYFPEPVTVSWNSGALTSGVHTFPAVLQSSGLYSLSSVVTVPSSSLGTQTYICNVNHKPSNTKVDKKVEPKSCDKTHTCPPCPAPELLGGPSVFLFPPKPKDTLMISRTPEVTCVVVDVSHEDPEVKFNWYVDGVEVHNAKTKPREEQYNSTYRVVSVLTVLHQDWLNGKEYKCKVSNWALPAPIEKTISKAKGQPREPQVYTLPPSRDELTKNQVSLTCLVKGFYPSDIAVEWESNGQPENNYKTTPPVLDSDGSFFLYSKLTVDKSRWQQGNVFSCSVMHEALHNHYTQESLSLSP
light: B1 light
notes: also called Ho Ab K326_20W
B17: GpH7-B3 variant S267_01G/GpL16-k0 (antibody, human IgG1, kappa)
heavy: not shown
light: B1 light
notes: also called Ho Ab S267_01G
B18: GpH7-B3 variant N325_13S/GpL16-k0 (antibody, human IgG1, kappa)
heavy: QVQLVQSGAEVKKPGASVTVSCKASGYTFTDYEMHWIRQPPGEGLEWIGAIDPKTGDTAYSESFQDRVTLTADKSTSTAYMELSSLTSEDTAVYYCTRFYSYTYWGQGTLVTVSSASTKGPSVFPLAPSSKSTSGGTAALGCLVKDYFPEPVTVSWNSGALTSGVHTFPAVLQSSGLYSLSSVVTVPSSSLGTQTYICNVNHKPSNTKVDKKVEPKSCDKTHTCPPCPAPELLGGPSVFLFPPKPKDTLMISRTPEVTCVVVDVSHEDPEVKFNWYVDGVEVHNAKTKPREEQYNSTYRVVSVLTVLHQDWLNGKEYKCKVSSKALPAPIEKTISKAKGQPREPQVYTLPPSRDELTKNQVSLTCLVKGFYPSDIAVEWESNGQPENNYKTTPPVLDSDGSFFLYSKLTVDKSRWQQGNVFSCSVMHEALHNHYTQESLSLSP
light: B1 light
notes: also called Ho Ab N325_13S
B19: GpH7-B3 variant L328_10E/GpL16-k0 (antibody, human IgG1, kappa)
heavy: not shown
light: B1 light
notes: also called Ho Ab L328_10E
B20: GpH7-B3 variant P331_06M/GpL16-k0 (antibody, human IgG1, kappa)
heavy: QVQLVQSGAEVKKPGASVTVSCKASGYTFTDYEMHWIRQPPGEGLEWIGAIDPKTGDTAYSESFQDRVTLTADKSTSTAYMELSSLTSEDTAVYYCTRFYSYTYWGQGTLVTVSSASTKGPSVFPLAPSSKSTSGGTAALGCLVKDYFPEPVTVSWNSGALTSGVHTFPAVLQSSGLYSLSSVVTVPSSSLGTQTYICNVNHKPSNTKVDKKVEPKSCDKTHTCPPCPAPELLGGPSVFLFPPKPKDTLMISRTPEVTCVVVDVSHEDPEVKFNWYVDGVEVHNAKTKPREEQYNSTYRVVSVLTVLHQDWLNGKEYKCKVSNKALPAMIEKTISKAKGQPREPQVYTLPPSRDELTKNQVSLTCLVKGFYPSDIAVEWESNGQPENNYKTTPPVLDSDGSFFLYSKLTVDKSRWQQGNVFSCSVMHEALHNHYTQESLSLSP
light: B1 light
notes: also called Ho Ab P331_06M
B21: GpH7-B3 variant P271_10E/GpL16-k0 (antibody, human IgG1, kappa)
heavy: not shown
light: B1 light
notes: also called Ho Ab P271_10E
B22: GpH7-B3 variant S337_16H/GpL16-k0 (antibody, human IgG1, kappa)
heavy: not shown
light: B1 light
notes: also called Ho Ab S337_16H
B23: GpH7-B3 variant P238_09D/GpL16-k0 (antibody, human IgG1, kappa)
heavy: not shown
light: B1 light
notes: also called Ho Ab P238_09D
B24: GpH7-B3 variant L234_09D/GpL16-k0 (antibody, human IgG1, kappa)
heavy: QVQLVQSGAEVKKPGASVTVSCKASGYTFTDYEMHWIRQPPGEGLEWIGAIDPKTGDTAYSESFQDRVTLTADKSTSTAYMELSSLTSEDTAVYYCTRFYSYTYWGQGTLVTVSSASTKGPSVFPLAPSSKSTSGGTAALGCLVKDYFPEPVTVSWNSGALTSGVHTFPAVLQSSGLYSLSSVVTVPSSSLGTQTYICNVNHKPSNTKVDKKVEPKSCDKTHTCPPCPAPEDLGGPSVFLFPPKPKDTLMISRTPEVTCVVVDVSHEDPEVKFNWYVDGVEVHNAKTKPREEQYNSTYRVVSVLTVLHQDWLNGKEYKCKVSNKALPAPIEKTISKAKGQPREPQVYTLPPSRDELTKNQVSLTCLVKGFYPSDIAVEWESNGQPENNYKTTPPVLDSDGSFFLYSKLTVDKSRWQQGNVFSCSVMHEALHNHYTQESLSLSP
light: B1 light
notes: also called Ho Ab L234_09D
B25: GpH7-B3 variant S337_08L/GpL16-k0 (antibody, human IgG1, kappa)
heavy: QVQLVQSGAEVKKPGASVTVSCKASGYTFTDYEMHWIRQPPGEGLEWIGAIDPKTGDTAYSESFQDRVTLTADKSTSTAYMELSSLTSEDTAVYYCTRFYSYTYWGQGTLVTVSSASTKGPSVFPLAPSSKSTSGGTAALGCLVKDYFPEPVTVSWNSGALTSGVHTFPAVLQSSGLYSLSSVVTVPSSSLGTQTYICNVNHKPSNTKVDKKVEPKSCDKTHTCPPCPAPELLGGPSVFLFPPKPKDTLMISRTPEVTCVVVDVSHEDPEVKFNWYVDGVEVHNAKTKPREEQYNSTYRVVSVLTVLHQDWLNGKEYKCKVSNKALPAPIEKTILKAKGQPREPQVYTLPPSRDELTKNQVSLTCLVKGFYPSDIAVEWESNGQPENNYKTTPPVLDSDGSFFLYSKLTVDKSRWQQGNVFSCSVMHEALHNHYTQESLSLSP
light: B1 light
notes: also called Ho Ab S337_08L
B26: GpH7-B3 variant S337_15Y/GpL16-k0 (antibody, human IgG1, kappa)
heavy: not shown
light: B1 light
notes: also called Ho Ab S337_15Y
B27: GpH7-B3 variant P238_19Q/GpL16-k0 (antibody, human IgG1, kappa)
heavy: not shown
light: B1 light
notes: also called Ho Ab P238_19Q
B28: GpH7-B3 variant N325_07I/GpL16-k0 (antibody, human IgG1, kappa)
heavy: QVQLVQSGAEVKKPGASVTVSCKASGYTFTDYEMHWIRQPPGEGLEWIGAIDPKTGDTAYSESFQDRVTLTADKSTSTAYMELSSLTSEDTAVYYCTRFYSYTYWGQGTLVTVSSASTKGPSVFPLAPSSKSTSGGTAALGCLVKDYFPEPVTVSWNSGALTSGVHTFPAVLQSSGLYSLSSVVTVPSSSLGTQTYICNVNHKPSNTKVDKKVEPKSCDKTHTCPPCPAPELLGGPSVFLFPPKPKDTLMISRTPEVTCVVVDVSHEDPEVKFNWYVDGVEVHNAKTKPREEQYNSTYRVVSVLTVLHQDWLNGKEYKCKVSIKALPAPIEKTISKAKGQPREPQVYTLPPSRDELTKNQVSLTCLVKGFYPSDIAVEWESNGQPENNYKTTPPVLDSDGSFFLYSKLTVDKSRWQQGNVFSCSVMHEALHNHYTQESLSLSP
light: B1 light
notes: also called Ho Ab N325_07I

Target: T1, FcγRIIb extracellular domain with …
Test: SPR (Biacore), relative binding
Method: Analysis of interaction between objective antibody and the FcγR was carried out using Biacore T100 (GE Healthcare). HBS-EP+ (GE Healthcare) was used as the running buffer, and the measurement temperature was set to 25° C. Chips produced by immobilizing the antigen peptide by the amine coupling method to a Series S Sencor Chip CM5 (GE Healthcare), or alternatively, chips produced by allowing preliminarily biotinylated antigen peptides to interact with and immobilize onto a Series S Sensor Chip SA (certified) (GE Healthcare) were used. Antibodies of interest were captured onto an antigen peptide-immobilized chip, and allowed to interact to each FcγR diluted with running buffer. To regenerate and repeatedly use the chip, the antibodies captured on the chip were washed off by reacting 10 mM glycine-HCl, pH 1.5.

Row | Ho/Con_2b | Binder
1 | 168 % of HoCon Ab GpH7-B3/GpL16-k0 | B1
2 | 97.1 % of HoCon Ab GpH7-B3/GpL16-k0 | B2
3 | 61 % of HoCon Ab GpH7-B3/GpL16-k0 | B3
4 | 111 % of HoCon Ab GpH7-B3/GpL16-k0 | B4
5 | 209 % of HoCon Ab GpH7-B3/GpL16-k0 | B5
6 | 147 % of HoCon Ab GpH7-B3/GpL16-k0 | B6
7 | 111 % of HoCon Ab GpH7-B3/GpL16-k0 | B7
8 | 31.8 % of HoCon Ab GpH7-B3/GpL16-k0 | B8
9 | 127 % of HoCon Ab GpH7-B3/GpL16-k0 | B9
10 | 18.8 % of HoCon Ab GpH7-B3/GpL16-k0 | B10
11 | 187 % of HoCon Ab GpH7-B3/GpL16-k0 | B11
12 | 98 % of HoCon Ab GpH7-B3/GpL16-k0 | B12
13 | 106 % of HoCon Ab GpH7-B3/GpL16-k0 | B13
14 | 101 % of HoCon Ab GpH7-B3/GpL16-k0 | B14
15 | 80.6 % of HoCon Ab GpH7-B3/GpL16-k0 | B15
16 | 132 % of HoCon Ab GpH7-B3/GpL16-k0 | B16
17 | 97 % of HoCon Ab GpH7-B3/GpL16-k0 | B17
18 | 159 % of HoCon Ab GpH7-B3/GpL16-k0 | B18
19 | 146 % of HoCon Ab GpH7-B3/GpL16-k0 | B19
20 | 71.5 % of HoCon Ab GpH7-B3/GpL16-k0 | B20
21 | 95 % of HoCon Ab GpH7-B3/GpL16-k0 | B21
22 | 103 % of HoCon Ab GpH7-B3/GpL16-k0 | B22
23 | 207 % of HoCon Ab GpH7-B3/GpL16-k0 | B23
24 | 68.5 % of HoCon Ab GpH7-B3/GpL16-k0 | B24
25 | 90.7 % of HoCon Ab GpH7-B3/GpL16-k0 | B25
26 | 93.4 % of HoCon Ab GpH7-B3/GpL16-k0 | B26
27 | 42.7 % of HoCon Ab GpH7-B3/GpL16-k0 | B27
28 | 88.2 % of HoCon Ab GpH7-B3/GpL16-k0 | B28
